Laboratory results from patent US20240269176A1 (Hoffmann-La Roche, published 2024).
Where two headings read alike, the source gives them in different places.

How the values were obtained:
[1] = biological target: VH1VL1-CD8ATD-CD137CSD-CD3zSSD fusion; experiment: cell-based or functional assay
[2] = biological target: VH3VL1-CD8ATD-CD137CSD-CD3zSSD fusion; experiment: cell-based or functional assay
[3] = biological target: VL1VH3-CD8ATD-CD137CSD-CD3zSSD fusion; experiment: cell-based or functional assay
[4] = biological target: VH2VL1-CD8ATD-CD137CSD-CD3zSSD fusion; experiment: cell-based or functional assay
murinPG-Fab-CAR = experiment: cell-based or functional assay
[5] = biological target: VH1VL1-CD8ATD-CD137CSD-CD3zSSD fusion; experiment: cell-based or functional assay; remark: listed apart in the source
[6] = biological target: VH3VL1-CD8ATD-CD137CSD-CD3zSSD fusion; experiment: cell-based or functional assay; remark: listed apart in the source
[7] = biological target: VL1VH3-CD8ATD-CD137CSD-CD3zSSD fusion; experiment: cell-based or functional assay; remark: listed apart in the source
[8] = biological target: T1, VH1VL1-CD8ATD-CD137CSD-CD3zSSD fusion; experiment: NFAT-luciferase reporter assay, anti-P329G CAR Jurkat cells with WSUDLCL2 (CD20+) target cells
T1 construct: Chimeric antigen receptor on Jurkat NFAT reporter T cells; also called VH1VL1 P329G-CAR
T1 sequence (chain, as listed by the source): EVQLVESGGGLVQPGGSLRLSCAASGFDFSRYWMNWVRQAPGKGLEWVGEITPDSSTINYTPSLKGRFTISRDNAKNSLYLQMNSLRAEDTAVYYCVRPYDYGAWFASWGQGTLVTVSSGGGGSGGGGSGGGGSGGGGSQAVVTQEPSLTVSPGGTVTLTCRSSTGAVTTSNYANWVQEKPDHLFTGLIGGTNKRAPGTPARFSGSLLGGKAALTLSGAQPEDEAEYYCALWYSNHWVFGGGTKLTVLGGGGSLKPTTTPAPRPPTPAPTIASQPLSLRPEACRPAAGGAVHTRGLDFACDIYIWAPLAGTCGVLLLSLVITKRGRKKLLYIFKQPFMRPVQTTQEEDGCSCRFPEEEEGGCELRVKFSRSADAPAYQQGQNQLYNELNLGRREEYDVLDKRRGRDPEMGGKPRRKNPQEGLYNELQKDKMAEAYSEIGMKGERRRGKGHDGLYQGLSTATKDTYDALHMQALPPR
Procedure: (§1) Binding of the CAR to an immobilized adapter molecule (e.g. a tumor antigen bound adapter molecule) leads to CAR crosslinking resulting in T cell activation and in the expression of luciferase. […] The 384 well plate was centrifuged for 1 min at 300 g and RT and incubated at 37° C. and 5% CO₂ in a humidity atmosphere. After 7 h incubation 20% of the final volume of ONE-Glo™ Luciferase Assay (E6120, Promega) was added, and plates were centrifuged for 1 min at 350×g. Afterwards, the relative luminescence units (RLU) per s/well were measured immediately using a Tecan microplate reader. Concentration-response curves were fitted and EC₅₀ values were calculated using GraphPadPrism version 7. As p value the New England Journal of Medicine style was used as listed in GraphPadPrism 7. Meaning *=P≤0,033; **=P≤0,002; ***=P≤0,001.

[9] = biological target: T2, VH3VL1-CD8ATD-CD137CSD-CD3zSSD fusion; experiment: as above
T2 construct: Chimeric antigen receptor with humanized anti-P329G scFv (VH-linker-VL), expressed on Jurkat NFAT reporter T cells; expression construct carried a T2A-GFP reporter
T2 sequence (chain, as listed by the source): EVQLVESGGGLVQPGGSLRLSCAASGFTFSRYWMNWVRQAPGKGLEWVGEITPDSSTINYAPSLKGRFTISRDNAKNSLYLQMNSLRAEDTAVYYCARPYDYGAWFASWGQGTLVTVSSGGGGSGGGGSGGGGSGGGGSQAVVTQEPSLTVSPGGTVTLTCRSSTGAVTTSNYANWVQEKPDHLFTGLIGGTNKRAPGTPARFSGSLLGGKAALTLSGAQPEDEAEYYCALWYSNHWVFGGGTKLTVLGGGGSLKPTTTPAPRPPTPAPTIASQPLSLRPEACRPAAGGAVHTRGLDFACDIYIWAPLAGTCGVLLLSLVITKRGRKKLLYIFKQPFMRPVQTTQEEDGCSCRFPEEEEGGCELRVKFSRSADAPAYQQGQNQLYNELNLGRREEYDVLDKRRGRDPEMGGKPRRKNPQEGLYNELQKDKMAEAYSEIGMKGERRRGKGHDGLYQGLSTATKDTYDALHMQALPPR
Procedure: as §1

[10] = biological target: T3, VL1VH3-CD8ATD-CD137CSD-CD3zSSD fusion; experiment: as above
T3 construct: Chimeric antigen receptor with scFv in VL-linker-VH orientation on Jurkat NFAT reporter T cells; the entry may be incomplete
T3 sequence (chain, as listed by the source): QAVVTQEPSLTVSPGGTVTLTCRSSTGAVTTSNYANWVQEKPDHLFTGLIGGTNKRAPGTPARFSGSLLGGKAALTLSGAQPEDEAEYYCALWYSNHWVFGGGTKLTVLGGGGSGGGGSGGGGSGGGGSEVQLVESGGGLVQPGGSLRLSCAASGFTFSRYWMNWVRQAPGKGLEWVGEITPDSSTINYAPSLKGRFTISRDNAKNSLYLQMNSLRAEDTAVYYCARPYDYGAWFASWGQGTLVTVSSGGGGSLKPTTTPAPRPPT
Procedure: as §1

[11] = biological target: T4, VH2VL1-CD8ATD-CD137CSD-CD3zSSD fusion; experiment: as above
T4 construct: Chimeric antigen receptor on Jurkat NFAT reporter T cells; also called VH2VL1 P329G-CAR
T4 sequence (chain, as listed by the source): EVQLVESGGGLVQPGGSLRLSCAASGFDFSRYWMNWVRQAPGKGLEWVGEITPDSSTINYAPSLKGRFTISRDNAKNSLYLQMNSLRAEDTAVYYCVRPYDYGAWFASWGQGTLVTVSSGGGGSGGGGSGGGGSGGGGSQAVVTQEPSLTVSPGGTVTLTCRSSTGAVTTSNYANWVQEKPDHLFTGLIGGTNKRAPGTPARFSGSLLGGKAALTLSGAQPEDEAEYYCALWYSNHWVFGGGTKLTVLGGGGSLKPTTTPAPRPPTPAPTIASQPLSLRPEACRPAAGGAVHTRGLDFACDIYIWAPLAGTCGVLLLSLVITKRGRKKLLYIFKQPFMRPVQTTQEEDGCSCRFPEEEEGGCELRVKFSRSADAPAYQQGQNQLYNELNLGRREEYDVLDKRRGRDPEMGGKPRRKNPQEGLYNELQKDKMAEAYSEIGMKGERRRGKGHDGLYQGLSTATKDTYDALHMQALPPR
Procedure: as §1

[12] = biological target: T1, VH1VL1-CD8ATD-CD137CSD-CD3zSSD fusion; experiment: cell-based or functional assay; remark: listed apart in the source
[13] = biological target: T3, VL1VH3-CD8ATD-CD137CSD-CD3zSSD fusion; experiment: cell-based or functional assay; remark: listed apart in the source
[14] = biological target: T1, VH1VL1-CD8ATD-CD137CSD-CD3zSSD fusion; experiment: NFAT-luciferase reporter assay, anti-P329G CAR Jurkat cells with WSUDLCL2 (CD20+) target cells; remark: listed apart in the source
Procedure: as §1

[15] = biological target: T2, VH3VL1-CD8ATD-CD137CSD-CD3zSSD fusion; experiment: as above; remark: listed apart in the source
Procedure: as §1

[16] = biological target: T3, VL1VH3-CD8ATD-CD137CSD-CD3zSSD fusion; experiment: as above; remark: listed apart in the source
Procedure: as §1

[17] = biological target: T4, VH2VL1-CD8ATD-CD137CSD-CD3zSSD fusion; experiment: as above; remark: listed apart in the source
Procedure: as §1

B1: anti-CD20 (GA101) P329G LALA IgG1 (antibody)
heavy: not shown
light: DIVMTQTPLSLPVTPGEPASISCRSSKSLLHSNGITYLYWYLQKPGQSPQLLIYQMSNLVSGVPDRFSGSGSGTDFTLKISRVEAEDVGVYYCAQNLELPYTFGGGTKVEIKRTVAAPSVFIFPPSDEQLKSGTASVVCLLNNFYPREAKVQWKVDNALQSGNSQESVTEQDSKDSTYSLSSTLTLSKADYEKHKVYACEVTHQGLSSPVTKSFNRGEC
EC50 of NFAT-luciferase activation of anti-P329G CAR Jurkat cells, WSUDLCL2 target cells (5:1); VH1 x VL1 [1]: 8.1 pM | EC50 of NFAT-luciferase activation of anti-P329G CAR Jurkat cells, WSUDLCL2 target cells (5:1); VH3 x VL1 [2]: 7.57 pM | EC50 of NFAT-luciferase activation of anti-P329G CAR Jurkat cells, WSUDLCL2 target cells (5:1); VL1 x VH 3 [3]: ~6.58 pM | EC50 of NFAT-luciferase activation of anti-P329G CAR Jurkat cells, WSUDLCL2 target cells (5:1); table row VH2 x VL1 [4]: ~6.93 pM

B2: anti-CD20 (GA101) heterodimeric IgG1 (antibody)
heavy 1: QVQLVQSGAEVKKPGSSVKVSCKASGYAFSYSWINWVRQAPGQGLEWMGRIFPGDGDTDYNGKFKGRVTITADKSTSTAYMELSSLRSEDTAVYYCARNVFDGYWLVYWGQGTLVTVSSASTKGPSVFPLAPSSKSTSGGTAALGCLVKDYFPEPVTVSWNSGALTSGVHTFPAVLQSSGLYSLSSVVTVPSSSLGTQTYICNVNHKPSNTKVDKKVEPKSCDKTHTCPPCPAPELLGGPSVFLFPPKPKDTLMISRTPEVTCVVVDVSHEDPEVKFNWYVDGVEVHNAKTKPREEQYNSTYRVVSVLTVLHQDWLNGKEYKCKVSNKALGAPIEKTISKAKGQPREPQVYTLPPCRDELTKNQVSLWCLVKGFYPSDIAVEWESNGQPENNYKTTPPVLDSDGSFFLYSKLTVDKSRWQQGNVFSCSVMHEALHNHYTQKSLSLSP
heavy 2: QVQLVQSGAEVKKPGSSVKVSCKASGYAFSYSWINWVRQAPGQGLEWMGRIFPGDGDTDYNGKFKGRVTITADKSTSTAYMELSSLRSEDTAVYYCARNVFDGYWLVYWGQGTLVTVSSASTKGPSVFPLAPSSKSTSGGTAALGCLVKDYFPEPVTVSWNSGALTSGVHTFPAVLQSSGLYSLSSVVTVPSSSLGTQTYICNVNHKPSNTKVDKKVEPKSCDKTHTCPPCPAPELLGGPSVFLFPPKPKDTLMISRTPEVTCVVVDVSHEDPEVKFNWYVDGVEVHNAKTKPREEQYNSTYRVVSVLTVLHQDWLNGKEYKCKVSNKALPAPIEKTISKAKGQPREPQVCTLPPSRDEL
light: B1 light
modifications: defucosylated
EC50 (read off the curve); NFAT-luciferase, anti-P329G CAR Jurkat reporter cells (panel title murinPG-Fab-CAR activation) with WSUDLCL2 CD20+ target cells (murinPG-Fab-CAR): ~20 pM

B3: anti-CD20 (GA101) wild type IgG1 (antibody)
heavy: not shown
light: B1 light
notes: also called WT GA101
EC50 of NFAT-luciferase activation of anti-P329G CAR Jurkat cells, WSUDLCL2 target cells (5:1); curve flat at 50-150 RLU/s, fit without meaning; VH1 x VL1 [5]: ~2.19 pM | EC50 of NFAT-luciferase activation of anti-P329G CAR Jurkat cells, WSUDLCL2 target cells (5:1); curve flat at 50-150 RLU/s, fit without meaning; VH3 x VL1 [6]: ~85 pM | EC50 of NFAT-luciferase activation of anti-P329G CAR Jurkat cells, WSUDLCL2 target cells (5:1); curve flat at 50-150 RLU/s, fit without meaning; VL1 x VH 3 [7]: ~78.3 pM | binding result [8]: no binding (tested: just below 10^2 nM (67 nM per paragraph 404)) | binding result [9]: no binding (tested: just below 10^2 nM (67 nM per paragraph 404)) | binding result [10]: no binding (tested: just below 10^2 nM (67 nM per paragraph 404)) | binding result [11]: no binding (tested: just below 10^2 nM (67 nM per paragraph 404))

B4: anti-CD20 (GA101) LALA IgG1 (antibody)
heavy: not shown
light: B1 light
EC50 of NFAT-luciferase activation of anti-P329G CAR Jurkat cells, WSUDLCL2 target cells (5:1); curve flat at 60-150 RLU/s, fit without meaning; VH1 x VL1 [12]: ~0.0485 pM | EC50 of NFAT-luciferase activation of anti-P329G CAR Jurkat cells, WSUDLCL2 target cells (5:1); curve flat at 60-150 RLU/s, fit without meaning; VL1 x VH 3 [13]: ~0.000234 pM | binding result [14]: no binding (tested: just below 10^2 nM (67 nM per paragraph 404)) | binding result [15]: no binding (tested: just below 10^2 nM (67 nM per paragraph 404)) | binding result [16]: no binding (tested: just below 10^2 nM (67 nM per paragraph 404)) | binding result [17]: no binding (tested: just below 10^2 nM (67 nM per paragraph 404))
